# Test results from patent US20230220042A1 (SHANGHAI JIAO TONG UNIVERSITY SCHOOL OF MEDICINE, published 2023).
# T1: Biotin-FcγRIIB (human, UniProt P31994 43-217, limits assumed, biotin-labelled)
# T1 construct: Bought, biotin-labelled; used at 1 µg/ml for staining and sorting; also called human FcγRIIB; CD32b
# T1 sequence (looked up): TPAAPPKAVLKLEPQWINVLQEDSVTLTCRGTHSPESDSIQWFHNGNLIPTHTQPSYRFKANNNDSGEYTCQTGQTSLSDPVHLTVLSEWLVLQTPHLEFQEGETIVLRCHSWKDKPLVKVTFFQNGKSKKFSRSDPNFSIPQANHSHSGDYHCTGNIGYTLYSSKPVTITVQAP
# Key:
# Biotin-FcγRIIB [1] = target: T1, Biotin-FcγRIIB; experiment: FACS sorting of displayed Fc library on biotin-FcγRIIB, NGS; reference G327A
# Biotin-FcγRIIB [2] = target: T1, Biotin-FcγRIIB; experiment: FACS sorting of displayed Fc library on biotin-FcγRIIB, NGS
# Biotin-FcγRIIB [3] = target: T1, Biotin-FcγRIIB; experiment: FACS sorting of displayed Fc library on biotin-FcγRIIB, NGS; reference P271C
binder,measurement,setting,value
"human IgG2 anti-mouse CD40 surface displayed antibody, Fc mutant G327A/A330R (antibody, name in EU numbering, as m1; positions are Eu numbers; copies: 2 + 2) light chain (with the P2A rest): DTVLTQSPALAVSPGERVTISCRASDSVSTLMHWYQQKPGQQPKLLIYLASHLESGVPARFSGSGSGTDFTLTIDPVEADDTATYYCQQSWNDPWTFGGGTKLELKRTVAAPSVFIFPPSDEQLKSGTASVVCLLNNFYPREAKVQWKVDNALQSGNSQESVTEQDSKDSTYSLSSTLTLSKADYEKHKVYACEVTHQGLSSPVTKSFNRGECGSGATNFSLLKQAGDVEENPG heavy chain: EVQLVESDGGLVQPGRSLKLPCAASGFTFSDYYMAWVRQAPTKGLEWVASISYDGSSTYYRDSVKGRFTISRDNAKSTLYLQMDSLRSEDTATYYCGRHSSYFDYWGQGVMVTVSSASTKGPSVFPLAPCSRSTSESTAALGCLVKDYFPEPVTVSWNSGALTSGVHTFPAVLQSSGLYSLSSVVTVPSSNFGTQTYTCNVDHKPSNTKVDKTVERKCCVECPPCPAPPVAGPSVFLFPPKPKDTLMISRTPEVTCVVVDVSHEDPEVQFNWYVDGVEVHNAKTKPREEQFNSTFRVVSVLTVVHQDWLNGKEYKCKVSNKALPRPIEKTISKTKGQPREPQVYTLPPSREEMTKNQVSLTCLVKGFYPSDIAVEWESNGQPENNYKTTPPMLDSDGSFFLYSKLTVDKSRWQQGNVFSCSVMHEALHNHYTQKSLSLSPGKLEPPPSTVSNMATVAVLVVLGAAIVTGAVVAFVMKMRRRNTGGKGGDYALAPGSQTSDLSLPDCKVMVHDPHSLA",Increased factor 2 c Site 1 (combined/point mutation),Biotin-FcγRIIB [1],19.5
same,Enrichment factor (after/before sorting),Biotin-FcγRIIB [2],98.3
same,Increased factor a (enrichment factor/wild-type enrichment factor),Biotin-FcγRIIB [2],65.8
"human IgG2 anti-mouse CD40 surface displayed antibody, Fc mutant G327A/A330V (antibody, name in EU numbering, as m1; positions are Eu numbers; copies: 2 + 2) light chain (with the P2A rest): DTVLTQSPALAVSPGERVTISCRASDSVSTLMHWYQQKPGQQPKLLIYLASHLESGVPARFSGSGSGTDFTLTIDPVEADDTATYYCQQSWNDPWTFGGGTKLELKRTVAAPSVFIFPPSDEQLKSGTASVVCLLNNFYPREAKVQWKVDNALQSGNSQESVTEQDSKDSTYSLSSTLTLSKADYEKHKVYACEVTHQGLSSPVTKSFNRGECGSGATNFSLLKQAGDVEENPG heavy chain: EVQLVESDGGLVQPGRSLKLPCAASGFTFSDYYMAWVRQAPTKGLEWVASISYDGSSTYYRDSVKGRFTISRDNAKSTLYLQMDSLRSEDTATYYCGRHSSYFDYWGQGVMVTVSSASTKGPSVFPLAPCSRSTSESTAALGCLVKDYFPEPVTVSWNSGALTSGVHTFPAVLQSSGLYSLSSVVTVPSSNFGTQTYTCNVDHKPSNTKVDKTVERKCCVECPPCPAPPVAGPSVFLFPPKPKDTLMISRTPEVTCVVVDVSHEDPEVQFNWYVDGVEVHNAKTKPREEQFNSTFRVVSVLTVVHQDWLNGKEYKCKVSNKALPVPIEKTISKTKGQPREPQVYTLPPSREEMTKNQVSLTCLVKGFYPSDIAVEWESNGQPENNYKTTPPMLDSDGSFFLYSKLTVDKSRWQQGNVFSCSVMHEALHNHYTQKSLSLSPGKLEPPPSTVSNMATVAVLVVLGAAIVTGAVVAFVMKMRRRNTGGKGGDYALAPGSQTSDLSLPDCKVMVHDPHSLA",Increased factor 2 c Site 1 (combined/point mutation),Biotin-FcγRIIB [1],1.4
same,Enrichment factor (after/before sorting),Biotin-FcγRIIB [2],6.98
same,Increased factor a (enrichment factor/wild-type enrichment factor),Biotin-FcγRIIB [2],4.67
"human IgG2 anti-mouse CD40 surface displayed antibody, Fc mutant G327A/I332E (antibody, name in EU numbering, as m1; positions are Eu numbers; copies: 2 + 2) light chain (with the P2A rest): DTVLTQSPALAVSPGERVTISCRASDSVSTLMHWYQQKPGQQPKLLIYLASHLESGVPARFSGSGSGTDFTLTIDPVEADDTATYYCQQSWNDPWTFGGGTKLELKRTVAAPSVFIFPPSDEQLKSGTASVVCLLNNFYPREAKVQWKVDNALQSGNSQESVTEQDSKDSTYSLSSTLTLSKADYEKHKVYACEVTHQGLSSPVTKSFNRGECGSGATNFSLLKQAGDVEENPG heavy chain: EVQLVESDGGLVQPGRSLKLPCAASGFTFSDYYMAWVRQAPTKGLEWVASISYDGSSTYYRDSVKGRFTISRDNAKSTLYLQMDSLRSEDTATYYCGRHSSYFDYWGQGVMVTVSSASTKGPSVFPLAPCSRSTSESTAALGCLVKDYFPEPVTVSWNSGALTSGVHTFPAVLQSSGLYSLSSVVTVPSSNFGTQTYTCNVDHKPSNTKVDKTVERKCCVECPPCPAPPVAGPSVFLFPPKPKDTLMISRTPEVTCVVVDVSHEDPEVQFNWYVDGVEVHNAKTKPREEQFNSTFRVVSVLTVVHQDWLNGKEYKCKVSNKALPAPEEKTISKTKGQPREPQVYTLPPSREEMTKNQVSLTCLVKGFYPSDIAVEWESNGQPENNYKTTPPMLDSDGSFFLYSKLTVDKSRWQQGNVFSCSVMHEALHNHYTQKSLSLSPGKLEPPPSTVSNMATVAVLVVLGAAIVTGAVVAFVMKMRRRNTGGKGGDYALAPGSQTSDLSLPDCKVMVHDPHSLA",Increased factor 2 c Site 1 (combined/point mutation),Biotin-FcγRIIB [1],24.9
same,Enrichment factor (after/before sorting),Biotin-FcγRIIB [2],126
same,Increased factor a (enrichment factor/wild-type enrichment factor),Biotin-FcγRIIB [2],84.1
"human IgG2 anti-mouse CD40 surface displayed antibody, Fc mutant S267M/P271C (antibody, name in EU numbering, as m1; positions are Eu numbers; copies: 2 + 2) light chain (with the P2A rest): DTVLTQSPALAVSPGERVTISCRASDSVSTLMHWYQQKPGQQPKLLIYLASHLESGVPARFSGSGSGTDFTLTIDPVEADDTATYYCQQSWNDPWTFGGGTKLELKRTVAAPSVFIFPPSDEQLKSGTASVVCLLNNFYPREAKVQWKVDNALQSGNSQESVTEQDSKDSTYSLSSTLTLSKADYEKHKVYACEVTHQGLSSPVTKSFNRGECGSGATNFSLLKQAGDVEENPG heavy chain: EVQLVESDGGLVQPGRSLKLPCAASGFTFSDYYMAWVRQAPTKGLEWVASISYDGSSTYYRDSVKGRFTISRDNAKSTLYLQMDSLRSEDTATYYCGRHSSYFDYWGQGVMVTVSSASTKGPSVFPLAPCSRSTSESTAALGCLVKDYFPEPVTVSWNSGALTSGVHTFPAVLQSSGLYSLSSVVTVPSSNFGTQTYTCNVDHKPSNTKVDKTVERKCCVECPPCPAPPVAGPSVFLFPPKPKDTLMISRTPEVTCVVVDVMHEDCEVQFNWYVDGVEVHNAKTKPREEQFNSTFRVVSVLTVVHQDWLNGKEYKCKVSNKGLPAPIEKTISKTKGQPREPQVYTLPPSREEMTKNQVSLTCLVKGFYPSDIAVEWESNGQPENNYKTTPPMLDSDGSFFLYSKLTVDKSRWQQGNVFSCSVMHEALHNHYTQKSLSLSPGKLEPPPSTVSNMATVAVLVVLGAAIVTGAVVAFVMKMRRRNTGGKGGDYALAPGSQTSDLSLPDCKVMVHDPHSLA",Increased factor 2 c Site 2 (combined/point mutation),Biotin-FcγRIIB [3],1.9
same,Enrichment factor (after/before sorting),Biotin-FcγRIIB [2],32.1
same,Increased factor a (enrichment factor/wild-type enrichment factor),Biotin-FcγRIIB [2],56
"human IgG2 anti-mouse CD40 surface displayed antibody, Fc mutant G327A/I332A (antibody, name in EU numbering, as m1; positions are Eu numbers; copies: 2 + 2) light chain (with the P2A rest): DTVLTQSPALAVSPGERVTISCRASDSVSTLMHWYQQKPGQQPKLLIYLASHLESGVPARFSGSGSGTDFTLTIDPVEADDTATYYCQQSWNDPWTFGGGTKLELKRTVAAPSVFIFPPSDEQLKSGTASVVCLLNNFYPREAKVQWKVDNALQSGNSQESVTEQDSKDSTYSLSSTLTLSKADYEKHKVYACEVTHQGLSSPVTKSFNRGECGSGATNFSLLKQAGDVEENPG heavy chain: EVQLVESDGGLVQPGRSLKLPCAASGFTFSDYYMAWVRQAPTKGLEWVASISYDGSSTYYRDSVKGRFTISRDNAKSTLYLQMDSLRSEDTATYYCGRHSSYFDYWGQGVMVTVSSASTKGPSVFPLAPCSRSTSESTAALGCLVKDYFPEPVTVSWNSGALTSGVHTFPAVLQSSGLYSLSSVVTVPSSNFGTQTYTCNVDHKPSNTKVDKTVERKCCVECPPCPAPPVAGPSVFLFPPKPKDTLMISRTPEVTCVVVDVSHEDPEVQFNWYVDGVEVHNAKTKPREEQFNSTFRVVSVLTVVHQDWLNGKEYKCKVSNKALPAPAEKTISKTKGQPREPQVYTLPPSREEMTKNQVSLTCLVKGFYPSDIAVEWESNGQPENNYKTTPPMLDSDGSFFLYSKLTVDKSRWQQGNVFSCSVMHEALHNHYTQKSLSLSPGKLEPPPSTVSNMATVAVLVVLGAAIVTGAVVAFVMKMRRRNTGGKGGDYALAPGSQTSDLSLPDCKVMVHDPHSLA",Increased factor 2 c Site 1 (combined/point mutation),Biotin-FcγRIIB [1],5.8
same,Enrichment factor (after/before sorting),Biotin-FcγRIIB [2],29.2
same,Increased factor a (enrichment factor/wild-type enrichment factor),Biotin-FcγRIIB [2],19.5
"human IgG2 anti-mouse CD40 surface displayed antibody, Fc mutant S267A/P271C (antibody, name in EU numbering, as m1; positions are Eu numbers; copies: 2 + 2) light chain (with the P2A rest): DTVLTQSPALAVSPGERVTISCRASDSVSTLMHWYQQKPGQQPKLLIYLASHLESGVPARFSGSGSGTDFTLTIDPVEADDTATYYCQQSWNDPWTFGGGTKLELKRTVAAPSVFIFPPSDEQLKSGTASVVCLLNNFYPREAKVQWKVDNALQSGNSQESVTEQDSKDSTYSLSSTLTLSKADYEKHKVYACEVTHQGLSSPVTKSFNRGECGSGATNFSLLKQAGDVEENPG heavy chain: EVQLVESDGGLVQPGRSLKLPCAASGFTFSDYYMAWVRQAPTKGLEWVASISYDGSSTYYRDSVKGRFTISRDNAKSTLYLQMDSLRSEDTATYYCGRHSSYFDYWGQGVMVTVSSASTKGPSVFPLAPCSRSTSESTAALGCLVKDYFPEPVTVSWNSGALTSGVHTFPAVLQSSGLYSLSSVVTVPSSNFGTQTYTCNVDHKPSNTKVDKTVERKCCVECPPCPAPPVAGPSVFLFPPKPKDTLMISRTPEVTCVVVDVAHEDCEVQFNWYVDGVEVHNAKTKPREEQFNSTFRVVSVLTVVHQDWLNGKEYKCKVSNKGLPAPIEKTISKTKGQPREPQVYTLPPSREEMTKNQVSLTCLVKGFYPSDIAVEWESNGQPENNYKTTPPMLDSDGSFFLYSKLTVDKSRWQQGNVFSCSVMHEALHNHYTQKSLSLSPGKLEPPPSTVSNMATVAVLVVLGAAIVTGAVVAFVMKMRRRNTGGKGGDYALAPGSQTSDLSLPDCKVMVHDPHSLA",Increased factor 2 c Site 2 (combined/point mutation),Biotin-FcγRIIB [3],2.2
same,Enrichment factor (after/before sorting),Biotin-FcγRIIB [2],37.4
same,Increased factor a (enrichment factor/wild-type enrichment factor),Biotin-FcγRIIB [2],65.1
"human IgG2 anti-mouse CD40 surface displayed antibody, Fc mutant G327A/I332C (antibody, name in EU numbering, as m1; positions are Eu numbers; copies: 2 + 2) light chain (with the P2A rest): DTVLTQSPALAVSPGERVTISCRASDSVSTLMHWYQQKPGQQPKLLIYLASHLESGVPARFSGSGSGTDFTLTIDPVEADDTATYYCQQSWNDPWTFGGGTKLELKRTVAAPSVFIFPPSDEQLKSGTASVVCLLNNFYPREAKVQWKVDNALQSGNSQESVTEQDSKDSTYSLSSTLTLSKADYEKHKVYACEVTHQGLSSPVTKSFNRGECGSGATNFSLLKQAGDVEENPG heavy chain: EVQLVESDGGLVQPGRSLKLPCAASGFTFSDYYMAWVRQAPTKGLEWVASISYDGSSTYYRDSVKGRFTISRDNAKSTLYLQMDSLRSEDTATYYCGRHSSYFDYWGQGVMVTVSSASTKGPSVFPLAPCSRSTSESTAALGCLVKDYFPEPVTVSWNSGALTSGVHTFPAVLQSSGLYSLSSVVTVPSSNFGTQTYTCNVDHKPSNTKVDKTVERKCCVECPPCPAPPVAGPSVFLFPPKPKDTLMISRTPEVTCVVVDVSHEDPEVQFNWYVDGVEVHNAKTKPREEQFNSTFRVVSVLTVVHQDWLNGKEYKCKVSNKALPAPCEKTISKTKGQPREPQVYTLPPSREEMTKNQVSLTCLVKGFYPSDIAVEWESNGQPENNYKTTPPMLDSDGSFFLYSKLTVDKSRWQQGNVFSCSVMHEALHNHYTQKSLSLSPGKLEPPPSTVSNMATVAVLVVLGAAIVTGAVVAFVMKMRRRNTGGKGGDYALAPGSQTSDLSLPDCKVMVHDPHSLA",Increased factor 2 c Site 1 (combined/point mutation),Biotin-FcγRIIB [1],2.3
same,Enrichment factor (after/before sorting),Biotin-FcγRIIB [2],11.4
same,Increased factor a (enrichment factor/wild-type enrichment factor),Biotin-FcγRIIB [2],7.64
